Experiment [1] concerns the target fully functional core construct of the rat cardiac sodium channel NaV1.5 (rNaV1.5C) (rat) (UniProt P15389). Put plainly: cryo-EM structure; purified rNaV1.5C (~1 mg/ml) mixed with 50 uM LqhIII and purified FGF12b and calmodulin, re-run on Superose-6 in 25 mM imidazole pH 6.0, 150 mM NaCl, 0.006% GDN; peak concentrated to 5 mg/ml; no membrane potential.
For experiment [2] the target is unchanged.

Chain of UniProt P15389 (P15389 whole entry): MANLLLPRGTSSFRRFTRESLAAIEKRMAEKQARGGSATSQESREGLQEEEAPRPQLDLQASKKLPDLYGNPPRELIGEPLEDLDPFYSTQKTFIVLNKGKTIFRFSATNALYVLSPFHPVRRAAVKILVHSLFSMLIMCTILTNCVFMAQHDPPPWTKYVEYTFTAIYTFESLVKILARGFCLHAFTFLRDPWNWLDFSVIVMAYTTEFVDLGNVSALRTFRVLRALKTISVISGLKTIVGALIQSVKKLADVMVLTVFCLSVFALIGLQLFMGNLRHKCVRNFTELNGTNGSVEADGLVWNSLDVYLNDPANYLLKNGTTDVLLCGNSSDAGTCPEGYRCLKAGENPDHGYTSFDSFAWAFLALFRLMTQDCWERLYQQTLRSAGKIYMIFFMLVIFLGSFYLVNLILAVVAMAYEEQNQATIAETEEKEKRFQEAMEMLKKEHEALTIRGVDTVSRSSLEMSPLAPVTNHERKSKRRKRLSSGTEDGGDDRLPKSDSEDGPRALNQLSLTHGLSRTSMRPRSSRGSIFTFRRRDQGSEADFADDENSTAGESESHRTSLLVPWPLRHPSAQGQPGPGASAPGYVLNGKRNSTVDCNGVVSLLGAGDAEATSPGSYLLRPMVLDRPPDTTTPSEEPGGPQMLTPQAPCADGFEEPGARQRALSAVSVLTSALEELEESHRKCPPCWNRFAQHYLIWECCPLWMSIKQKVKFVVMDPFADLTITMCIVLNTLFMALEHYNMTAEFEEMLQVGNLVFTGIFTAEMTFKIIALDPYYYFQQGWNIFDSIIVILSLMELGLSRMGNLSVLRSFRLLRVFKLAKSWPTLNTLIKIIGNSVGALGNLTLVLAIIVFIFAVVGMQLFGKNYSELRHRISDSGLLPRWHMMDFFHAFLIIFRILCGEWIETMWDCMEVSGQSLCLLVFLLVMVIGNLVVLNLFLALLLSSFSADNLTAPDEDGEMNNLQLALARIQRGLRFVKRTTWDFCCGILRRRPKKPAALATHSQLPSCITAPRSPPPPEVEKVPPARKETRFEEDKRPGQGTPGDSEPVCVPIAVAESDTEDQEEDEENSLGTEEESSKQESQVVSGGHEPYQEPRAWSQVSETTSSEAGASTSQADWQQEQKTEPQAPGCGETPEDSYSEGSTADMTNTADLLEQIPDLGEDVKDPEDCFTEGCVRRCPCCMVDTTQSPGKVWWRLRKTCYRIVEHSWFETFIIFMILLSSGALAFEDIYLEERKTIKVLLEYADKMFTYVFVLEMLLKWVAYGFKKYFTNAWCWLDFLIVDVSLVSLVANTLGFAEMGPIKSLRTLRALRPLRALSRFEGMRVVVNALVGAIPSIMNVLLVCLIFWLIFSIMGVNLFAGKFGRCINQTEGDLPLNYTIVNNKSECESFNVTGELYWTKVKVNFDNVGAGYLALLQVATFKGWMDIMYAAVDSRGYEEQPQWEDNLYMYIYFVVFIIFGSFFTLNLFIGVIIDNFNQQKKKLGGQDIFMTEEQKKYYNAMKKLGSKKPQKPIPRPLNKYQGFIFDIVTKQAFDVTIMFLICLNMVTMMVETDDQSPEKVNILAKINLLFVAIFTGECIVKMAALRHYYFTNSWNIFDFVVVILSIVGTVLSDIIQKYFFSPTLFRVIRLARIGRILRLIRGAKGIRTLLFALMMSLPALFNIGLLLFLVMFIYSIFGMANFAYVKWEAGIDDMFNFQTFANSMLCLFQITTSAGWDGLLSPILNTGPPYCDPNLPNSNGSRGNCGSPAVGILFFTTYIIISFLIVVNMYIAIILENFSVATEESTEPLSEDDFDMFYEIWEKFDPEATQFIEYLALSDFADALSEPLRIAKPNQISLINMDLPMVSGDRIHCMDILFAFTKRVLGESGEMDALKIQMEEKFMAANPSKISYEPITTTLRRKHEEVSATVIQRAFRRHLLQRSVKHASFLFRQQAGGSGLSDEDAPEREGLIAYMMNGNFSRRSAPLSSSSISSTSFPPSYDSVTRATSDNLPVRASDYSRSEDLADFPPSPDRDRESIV

B1: α-scorpion toxin LqhIII from the deathstalker scorpion Leiurus quinquestriatus hebraeus (natural protein)
chain: VRDGYIAQPENCVYHCFPGSSGCDTLCKEKGGTSGHCGFKVGHGLACWCNALPDNVGIIVEGEKCHS
The stoichiometry N is the number of molecules, sites or subunits per partner or assembly. As to B1, the stoichiometry N in experiment [1] is 1. In addition, in experiment [2], the inhibition of fast inactivation: sodium current remaining 6 ms after the depolarizing pulse, whole-cell patch clamp of HEK293S GnTI- cells expressing rNaV1.5C, 1-1000 nM LqhIII was determined as 11.4 nM and the time course of the block of fast inactivation on perfusion of 100 nM LqhIII, cells held at -120 mV, single exponential fit stood at 11.3 min.
